Laboratory results: patent US20190111148A1 (MONASH UNIVERSITY, published 2019)

T1: Peptide 4 of hIL-21 (human)
T1 construct: also called P4
T1 peptide: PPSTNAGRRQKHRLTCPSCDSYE

T2: Peptide 5 of hIL-21 (human)
T2 construct: also called P5
T2 peptide: PPSTNAGRRQKHRLT

T3: Peptide 3 of hIL-21 (human)
T3 construct: also called P3
T3 peptide: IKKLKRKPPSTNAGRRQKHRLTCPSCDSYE


Experiments:
[1] = biological target: T4, human IL-21 (human, UniProt Q9HBE4 25-162, limits assumed); experiment: SPR (ProtOn XPR36), biotinylated hIL21 immobilised on NLC chip, antibody in flow, triplicates
T4 construct: also called hIL-21; full length hIL-21
Procedure: Triplicates SPR measurements were conducted on ProtOn XPR36 (Bio-rad). NLC chips (Bio-rad) were used to immobilise biotinylated hIL21 on ligand channels, followed by flowing through of various concentrations of mouse 2P2 or humanised 2P2.

[2] = biological target: T4, human IL-21; experiment: cell-based or functional assay
[3] = biological target: T1, Peptide 4 of hIL-21; experiment: ELISA, biotinylated 2P2 on coated peptide
Procedure: (§1) To detect epitopes of 2P2 and 3A3, peptides consisting of different regions of hIL-21 were synthesized commercially and coated on an ELISA plate, followed by blocking of non-specific binding sites with 3% BSA in PBS. Biotinylated 2P2 or 3A3 were then added to the wells and developed with Streptavidin-HRP and TMB substrates.

[4] = biological target: T2, Peptide 5 of hIL-21; experiment: ELISA, biotinylated 2P2 on coated peptide
Procedure: as §1

[5] = biological target: mIL21 (mouse, UniProt Q9ES17); experiment: ELISA: coated mIL21, biotinylated 2P2, Streptavidin-HRP/TMB, A450
[6] = biological target: T3, Peptide 3 of hIL-21; experiment: ELISA: coated Peptide 3, biotinylated 2P2, Streptavidin-HRP/TMB, A450
Procedure: as §1

[7] = biological target: T5, Peptide 1 (P1, 30aa); experiment: peptide ELISA: coated peptide, biotinylated 2P2, Streptavidin-HRP/TMB, A450
T5 construct: also called peptide 1 of hIL-21
Procedure: as §1

[8] = biological target: T6, Peptide 2 (P2); experiment: as above
T6 construct: also called peptide 2 of hIL-21; Peptide 2 (P2, 27aa)
Procedure: as §1

[9] = biological target: T4, human IL-21; experiment: SPR, immobilised mAb, IL-21 in flow; average of the five wells of Table 6 (unit from Table 6); average with range and SD of the five measurements
Procedure: Surface Plasma Resonance binding kinetics assay were performed on a Bio-rad XPR36 system by the direct amine coupling method. Briefly, a flow of mixture of EDC [N-ethyl-N′-(3-diethylamino-propyl) carbodiimide] and NHS (N-hydroxysuccinimide) was used to activate the cell surface of a GLC sensor chip before 25 μg/ml anti-IL-21 mAb was flowed through, then a shot flow of ethanolamine was used to block the remaining active sites on the cell surface. Afterwards, serial diluted solutions of IL-21 from 0 to 40 nM were flown over the cell surface to bind to the immobilized anti-IL-21 mAb molecules. Binding kinetics were performed at 25° C. with a flow rate of 30 μL/min, association time of 3 min and dissociation time of 6 min. The buffer consisted of Hepes, NaCl, tween20, and 1 mg/mL BSA at pH 7.4. The flow cell regeneration buffer between cycles was 15 mM phosphoric acid. Double references were used to process the sensorgrams. The binding curves were globally fit to the 1:1 Langmuir binding model.

T4 sequence (Q9HBE4 25-162 limits assumed): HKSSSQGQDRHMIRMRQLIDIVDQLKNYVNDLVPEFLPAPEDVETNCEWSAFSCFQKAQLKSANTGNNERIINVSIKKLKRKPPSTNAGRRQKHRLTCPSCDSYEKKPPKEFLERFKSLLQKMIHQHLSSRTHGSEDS
T6 sequence (peptide, as listed by the source): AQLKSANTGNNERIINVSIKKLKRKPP
T5 sequence (peptide, as listed by the source): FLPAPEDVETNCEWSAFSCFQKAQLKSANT

| Kd [1] | koff [1] | bioactivity of human IL-21 (proliferation of Ba/F3-hIL-21 R cells, [3H]-thymidine incorporation) [2] | hIL-21 mediated human B cell proliferation (CFSE dilution, flow cytometry) [2] | hIL-21 mediated human CD8 T cell activation (granzyme B/perforin double positive cells) [2] | binding result [3] | binding result [4] | binding result [5] | binding result [6] | binding result [7] | binding result [8] | Kd [9] | Binder |
| --- | --- | --- | --- | --- | --- | --- | --- | --- | --- | --- | --- | --- |
| 0.0305 nM | 0.00037 s⁻¹ |  |  |  |  |  |  |  |  |  |  | humanized 2P2 antibody (antibody, V domains shown, it was detected with anti-human IgG in ELISA; also called h2P2; humanised 2P2) VH: QVQLVQSGAEVKKPGASVKVSCKASGFNIKDYYIHWVRQAPGQGLELIGWIDPESGDTNYAQKFQVKATMTRDTSISTAYMELSRLRSDDTAVYYCNDGSGYWGQGTTVTVSS VL: DVVMTQSPLSLPVTLGQPASISCKSSQSLLDSDGETYLNWLQQRPGQSPRRLISLVSKLDSGVPDRFSGSGSGTDFTLKISRVEAEDVGVYYCWQGTHFPYTFGQGTKLEIK |
| 0.0201 nM | 0.000512 s⁻¹ | > 10 fold | ~20 fold | > 10 fold | binds | binds | no binding | binds | no binding | no binding | 3.33 nM | monoclonal antibody 2P2 (antibody, V domains shown, Mouse monoclonal antibody; it was detected with anti-mouse IgG in ELISA; also called mAb 2P2; m2P2) VH: EVQLQQSGADLVRSGASVKLSCTASGFNIKDYYIHWVKQRPEQGLELIGWIDPESGDTEYAPKFQVKATMTADTSSNTAYLQLSSLTSEDTAVYYCNDGSGYWGQGTTLTVSS VL: not shown |
